Experimental data as given in paper PMC11717252, “Biophysical and biochemical evidence for the role of acetate kinases (AckAs) in an acetogenic pathway in pathogenic spirochetes” (PLOS ONE, 2025).
Where “and” joins values, the source holds several entries; their conditions need not be identical. Equal entries are not always repeated.

Key:
[1] = biological target: T1, TV0924 (TREVI0001_0924; rTV0924; TvAckA) (Treponema vincentii, UniProt C8PR54); test: X-ray crystal structure, […] Å; assay type: binding; details: active site; co-crystallised with 5 mM ADP and 5 mM MgCl2, pH 5.5; modelled as AMP, may be hydrolysed ADP or ADP with disordered beta-phosphate
T1 construct: gene ackA; homodimer, calculated dimer mass 104,820 g/mol
T1 sequence (C8PR54 1-449): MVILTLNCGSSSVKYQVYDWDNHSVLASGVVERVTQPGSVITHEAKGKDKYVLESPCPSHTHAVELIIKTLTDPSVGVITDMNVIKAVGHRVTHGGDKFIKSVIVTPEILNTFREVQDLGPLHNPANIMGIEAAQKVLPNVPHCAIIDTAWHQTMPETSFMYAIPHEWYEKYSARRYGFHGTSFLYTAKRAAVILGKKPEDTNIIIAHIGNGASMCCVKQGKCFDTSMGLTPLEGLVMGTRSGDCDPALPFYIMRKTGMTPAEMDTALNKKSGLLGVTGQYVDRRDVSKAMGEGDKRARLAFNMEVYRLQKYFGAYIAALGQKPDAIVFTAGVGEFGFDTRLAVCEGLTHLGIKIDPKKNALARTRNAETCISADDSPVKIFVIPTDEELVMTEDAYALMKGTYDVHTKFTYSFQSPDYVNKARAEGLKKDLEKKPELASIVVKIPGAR

[2] = biological target: TV0924 (TREVI0001_0924), acetate kinase from Treponema vincentii (Treponema vincentii); test: mass photometry; TwoMP (Refeyn), sample diluted in PBS, ca. 10 nM in the droplet, 60-s movie; self-association
[3] = biological target: TV0924 (TREVI0001_0924), acetate kinase from Treponema vincentii (Treponema vincentii); test: AUC; sedimentation velocity, 20°C, Buffer A (20 mM HEPES, 0.1 M NaCl, pH 7.5, 2 mM n-octyl-β-D-glucopyranoside), 50,000 rpm, absorbance at 280 nm, c(s) analysis in SEDFIT; self-association
[4] = substrate: CC(=O)OP(=O)(O)O; test: purified protein; assay type: biochemical, Treponema vincentii; details: ATP-forming direction, ADP up to 5 mM, 20 mM MgCl2, 100 mM HEPES pH 7.5, 100 mM NaCl, 37 °C
[5] = substrate: Nc1ncnc2c1ncn2[C@@H]1O[C@H](COP(=O)(O)OP(=O)(O)O)[C@@H](O)[C@H]1O; test: purified protein; assay type: biochemical, Treponema vincentii; details: ATP-forming direction, acetyl phosphate up to 10 mM, 20 mM MgCl2, 100 mM HEPES pH 7.5, 100 mM NaCl, 37 °C
[6] = biological target: the molecule itself; test: AUC; sedimentation velocity, 20°C, Buffer A (20 mM HEPES, 0.1 M NaCl, pH 7.5, 2 mM n-octyl-β-D-glucopyranoside), 50,000 rpm, absorbance at 280 nm, c(s) analysis in SEDFIT; self-association
[7] = biological target: the molecule itself; test: mass photometry; TwoMP (Refeyn), sample diluted in PBS, ca. 10 nM in the droplet, 60-s movie; self-association
[8] = substrate: CC(=O)OP(=O)(O)O; test: purified protein; assay type: biochemical, Treponema pallidum; details: ATP-forming direction, ADP up to 5 mM, 20 mM MgCl2, 100 mM HEPES pH 7.5, 100 mM NaCl, 37 °C
[9] = substrate: Nc1ncnc2c1ncn2[C@@H]1O[C@H](COP(=O)(O)OP(=O)(O)O)[C@@H](O)[C@H]1O; test: purified protein; assay type: biochemical, Treponema pallidum; details: ATP-forming direction, acetyl phosphate up to 10 mM, 20 mM MgCl2, 100 mM HEPES pH 7.5, 100 mM NaCl, 37 °C

**Q.** With Nc1ncnc2c1ncn2[C@@H]1O[C@H](COP(=O)(O)O)[C@@H](O)[C@H]1O [AMP] as the molecule, how does the “X-ray crystal structure, 1.30 Å” value [1] read?
**A.** The value was “The nucleotide was modeled as AMP, and we refer to this structure below as TV0924‧AMP”.

**Q.** Which results are given for “TV0924 (TREVI0001_0924), acetate kinase from Treponema vincentii (enzyme)”?
**A.** stoichiometry N [2]: 2; stoichiometry N [3]: 2

B1: TV0924 (TREVI0001_0924; rTV0924; TvAckA) (Treponema vincentii ATCC 35580) (protein)
chain: T1 sequence (C8PR54 1-449)
notes: homodimer, calculated dimer mass 104,820 g/mol
**Q.** How did the Km [4] turn out when B1 was run?
**A.** Its Km is 320 ± 30 µM.

**Q.** What about the kcat [4] of the same molecule?
**A.** Its kcat is 3900 ± 300 s⁻¹.

**Q.** And the kcat/Km [4]?
**A.** Its kcat/Km is 1.19e+07 ± 400000 M⁻¹ s⁻¹.

**Q.** And the Km [5]?
**A.** Its Km is 650 ± 30 µM.

**Q.** What about the kcat [5] of the same molecule?
**A.** Its kcat is 4800 ± 400 s⁻¹.

**Q.** What about the kcat/Km [5] of the same molecule?
**A.** Its kcat/Km is 7.5e+06 ± 400000 M⁻¹ s⁻¹.

B2: TP0476, acetate kinase from Treponema pallidum (enzyme, UniProt O83489 1-448, looked up)
chain: MIILTLNCGSSSVKYQVYNWTERAVIAVGVVERVTQAGSVITHEVHGRENHVRESPCPTHTEAVQLIISTLTDAHVGVISDMSLIKAVGHRVLHAADRFVKSVVVTPDVLETFRSVQDLGPLHNPANIRGIEAAQAVIPSVPHCAIMDTAWHQTMPEASFMYAVPRQWYEEYAVRRYGFHGTSFLYTAKRASVILKKRAEDTNIIIAHIGNGASMCCVKNGVSFDTSMGITPLEGLIMGTRCGDCDPALAFYIMRKTGMSVSDIDTTLNKQSGLLGITGKYVDRRDVCAAMKNGDALARLAFDMEVHRIRKYFGAYVAALGKQPDALVFTAGVGEMCCDVRAAACAGLEHLGIRLDARKNELARTRNAETEISTDDSPVRILVIPTDEELVMTEDTYALMQGTYDVHTRFTYSFQDPTYVNKARAAGLKRDLEKNPALATIVVPRLDT
notes: Acetate kinase TP0476 of Treponema pallidum, amino acid residues 1-448; The dominant species is a dimer; monomer, trimer, tetramer and aggregates were also seen; also called rTP0476; TpAckA
**Q.** How did the “stoichiometry N” value [6] turn out when B2 was run?
**A.** Its value is 2.

**Q.** And the “stoichiometry N” value [7]?
**A.** The value was 3 and 4.

**Q.** What about the Km [8] of the same molecule?
**A.** The Km was 380 ± 19 µM.

**Q.** What about the kcat [8] of the same molecule?
**A.** The kcat was 51.5 ± 0.8 s⁻¹.

**Q.** And the kcat/Km [8]?
**A.** Its kcat/Km is 137000 ± 11000 M⁻¹ s⁻¹.

**Q.** And the Km [9]?
**A.** Its Km is 650 ± 70 µM.

**Q.** What about the kcat [9] of the same molecule?
**A.** The kcat was 63.3 ± 1.5 s⁻¹.

**Q.** And the kcat/Km [9]?
**A.** Its kcat/Km is 90000 ± 10000 M⁻¹ s⁻¹.
